We go through one substance from PMC2720833.

For the experiment, the target named is GST-Cullin5 (NTD), N-terminal domain of murine cullin5 (Met1-Leu385) with V341R and L345D (murine) (UniProt Q9D5V5). The experiment can be described thus: SPR. On the technique in general: Surface plasmon resonance follows binding to a sensor surface in real time, without labels.
Sequence of GST-Cullin5 (NTD), N-terminal domain of murine cullin5 (Met1-Leu385) with V341R and L345D (murine) (Q9D5V5 1-385 V341R/L345D): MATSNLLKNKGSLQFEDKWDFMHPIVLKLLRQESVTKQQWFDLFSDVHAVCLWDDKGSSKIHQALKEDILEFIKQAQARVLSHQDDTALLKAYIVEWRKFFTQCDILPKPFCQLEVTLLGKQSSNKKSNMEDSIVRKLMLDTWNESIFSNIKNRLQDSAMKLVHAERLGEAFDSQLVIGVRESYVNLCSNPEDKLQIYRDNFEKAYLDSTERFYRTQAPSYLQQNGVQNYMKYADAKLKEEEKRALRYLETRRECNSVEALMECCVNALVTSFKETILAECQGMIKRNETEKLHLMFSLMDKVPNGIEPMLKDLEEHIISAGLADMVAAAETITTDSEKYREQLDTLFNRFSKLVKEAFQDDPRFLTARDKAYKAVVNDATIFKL

Substance “SOCS3 box/elonginBC ternary complex (from UniProt Q15370 1-118; P83940 17-112)” showed a KD by Biacore relative to KD by ITC (fold) of 4 fold and a half-life of the complex of 10 s.
